Test system: primary fetal endothelial cells (ECs) isolated from rat brains
Test: Trans-endothelial electrical resistance (TEER) of endothelial cell monolayer after oxygen glucose deprivation (OGD)
Assay type: cell-based
Procedure: To assess whether the effects on the BBB integrity are mediated by Annexin A1, we used a recognized model for BBB integrity of primary fetal endothelial cells (ECs) isolated from rat brains at postnatal day 3.
A cellular monolayer of endothelial cells (ECs) was cultured on semipermeable filter inserts (Transwell, 3460 Corning). Trans-endothelial electrical resistance (TEER) was measured as an established quantitative readout for barrier integrity as described before (Srinivasan et al., J. Lab Autom. 2015 (2) 107-126) using an Epithelial Voltohmmeter (EVOM2) with two chopstick electrodes, each containing a silver-silver chloride pellet for measuring voltage and a silver pellet for passing current. Measurements of the resistance in ohm (Ω) across the cell layer were made on the semipermeable membrane by placing one electrode in the upper compartment and the other electrode in the lower compartment. Measurements were performed in duplicate per insert and consistently conducted for several days, 30 minutes after culture media was changed and temperature was kept at 37° C. before and between all measurements. […]
Subsequently TEER was measured in all groups at 1 hour, 3 hours, 6 hours, 12 hours and 24 after normoxia/OGD. […]
At 0 hour, baseline TEER measurements were taken before initiation of OGD. […] TEER in ohms was measured 3 h, 6 h, 12 h and 24 h after treatment. […]

B1: Annexin A1 (protein, UniProt P04083 2-346, looked up)
Annexin A1: AMVSEFLKQAWFIENEEQEYVQTVKSSKGGPGSAVSPYPTFNPSSDVAALHKAIMVKGVDEATIIDILTKRNNAQRQQIKAAYLQETGKPLDETLKKALTGHLEEVVLALLKTPAQFDADELRAAMKGLGTDEDTLIEILASRTNKEIRDINRVYREELKRDLAKDITSDTSGDFRNALLSLAKGDRSEDFGVNEDLADSDARALYEAGERRKGTDVNVFNTILTTRSYPQLRRVFQKYTKYSKHDMNKVLDLELKGDIEKCLTAIVKCATSKPAFFAEKLHQAMKGVGTRHKALIRIMVSRSEIDMNDIKAFYQKMYGISLCQAILDETKGDYEKILVALCGGN
notes: recombinant Annexin A1 protein, preferably of human origin, obtained commercially
TEER plateau value (fetal rat brain ECs on Transwell, 4 h OGD then treatment with Annexin A1 3 μM, plateau from 12 h onwards, baseline approx. 150 ohms per insert): 130 ohms | effect on endothelial resistance / barrier integrity following OGD (fetal rat brain ECs, 4 h OGD, Annexin A1 3 μM): restores the endothelial resistance and/or barrier integrity
